According to patent publication US20130260436A1, “Methods of Identifying and Characterizing Natural Product Gene Clusters” (Victoria LInk Limited, priority 2010, published 2013):

What was measured:
[1] = BpsA coupled assay for PPTase kinetic parameters, CoA as variable substrate; type: biochemical; details: BpsA fixed at 0.83 μM
Description: Having established a linear relationship between concentration of holo-BpsA and the apparent rate of indigoidine synthesis in aqueous solution, we next wanted to test whether it was possible to evaluate PPTase activity by using acceleration of the rate of indigoidine synthesis as a measure of the rate of 4′-PP attachment to apo-BpsA. Replicate solutions containing PPTase and all of the substrates necessary for both phosphopantetheinylation and indigoidine synthesis were established using a twofold serial dilution series of CoA (0.024-50 μM) in ninety six well plates. Reactions were initiated by addition of 0.83 μM BpsA each well of a dilution series, and absorbance at 590 nm was measured continuously. Under these conditions, the pigment synthesis reaction undergoes an initial acceleration phase as apo-BpsA is converted to holo-BpsA by the PPTase. […]
A590 values were then recorded as previously described. […] A590 values were then recorded as previously described. For derivation of PPTase velocity values, the slope between every 2-8 data points was measured across the entire data range with the resulting values forming a new data set (BpsA velocity). The slope between every 2-8 points in the BpsA velocity data set was then determined using the slope function of Microsoft Excel and the maximum value from the resulting data set for each reaction taken as a measure of PPTase velocity. […]

BpsA [2] = assay: Qualitative PPTase activity in vivo by co-expression with a BpsA reporter in E. coli; type: cell-based, S. lavendulae ATCC 11924; details: E. coli BL21(DE3), auto-induction agar plates
Experimental: Single colonies of E. coli co-expressing BpsA and an activating PPTase were inoculated onto pigment production agar plate using a sterile pipette tip and incubated for 16 hours at 37° C. Protein expression was then induced by IPTG addition as described in Section 4.9.2 and the plate incubated for a further 24 h at room temperature (18-25° C.).
We constructed plasmids that allowed IPTG regulated co-expression of a candidate PPTase and BpsA in E. coli BL21(DE3). To enable IPTG regulated co-expression the BpsA gene of S. lavendulae ATCC 11924 was cloned into pCDFDUET-1 (Novagen) and three candidate PPTases into the (origin of replication compatible) vector pET28a(+). […] In contrast, if IPTG was absent from the medium viable co-transformed cells were recovered with good efficiency (not shown). […] In order to circumvent this problem we employed auto-induction agar plates, prepared by addition of 1.5% agar to Studier ZYP-5052 auto-induction medium (Studier 2005). Use of auto-induction agar plates allowed for both rapid growth and efficient induction of pigment production following extended incubation at room temperature.

BpsA [3] = biological target: T1, BpsA (Streptomyces lavendulae, UniProt Q1MWN4); assay: BpsA coupled assay for PPTase kinetic parameters, BpsA as variable substrate; type: biochemical, S. lavendulae ATCC 11924; details: CoA fixed at 25 μM
T1 construct: 6His; made in house; host or cells: E. coli
Description: Having established a linear relationship between concentration of holo-BpsA and the apparent rate of indigoidine synthesis in aqueous solution, we next wanted to test whether it was possible to evaluate PPTase activity by using acceleration of the rate of indigoidine synthesis as a measure of the rate of 4′-PP attachment to apo-BpsA. […] Under these conditions, the pigment synthesis reaction undergoes an initial acceleration phase as apo-BpsA is converted to holo-BpsA by the PPTase. […]
A590 values were then recorded as previously described. […] A590 values were then recorded as previously described. For derivation of PPTase velocity values, the slope between every 2-8 data points was measured across the entire data range with the resulting values forming a new data set (BpsA velocity). The slope between every 2-8 points in the BpsA velocity data set was then determined using the slope function of Microsoft Excel and the maximum value from the resulting data set for each reaction taken as a measure of PPTase velocity. […] For fast reactions smaller increments could be used, however for slow reactions noise from plate reader noise became a significant factor in point to point variation and created artificial fluctuations in measured slopes if too few points were used in slope determination. […]

[4] = BpsA indigoidine synthesis kinetics, L-Gln as variable substrate; type: biochemical
Experimental: Analysis of BpsA reaction rate over a replicate two fold serial dilution series (0.78 μM-16 mM) of L-gln was conducted at both pH 7.8 (sodium phosphate) and 8.0 (Tris-Cl). […] As such the ΔA590 was expected to be directly proportional to the concentration of holo-BpsA present in a reaction. This assumption was experimentally verified by monitoring reaction velocity at ten different concentrations of holo-BpsA (360 nM-1.14 μM) at constant L-gln/ATP concentrations; as shown in FIG. 6C the relationship between enzyme concentration and velocity is linear within this range (R^2=0.989). Owing to the lack of an extinction co-efficient for indigoidine in water, coupled with formation of insoluble precipitate, we were unable to derive a kcat value for BpsA. We were however able to discern a reproducible maximum velocities which are expressed with the units ΔA590/s. These parameters were subsequently employed for the derivation of PPTase kinetics as outlined in section 4.11.
Pre-activation mix to bring about conversion of apo to holo BpsA contained 3.4 μM apo-BpsA, 0.25 μM PcpS, 10 mM MgCl2, 100 μM CoA and 50 mM buffer (sodium phosphate buffer pH 7.8 or Tris-Cl pH 8.0) and was incubated for 20 min at 30° C.
A590 measurements were then taken every 6-10 s for ten minutes using an envision EnSpire® microplate reader. The resulting data was visualized and velocities derived using the Slope function of Microsoft Excel®. Kinetic parameters were derived from velocity values using Graphpad Prism®. For examination of the relationship between BpsA concentration and reaction velocity, a triplicate two fold serial dilution series of pre-activated BpsA was established in a 96 wp in a final volume of 50 μL, 100 μl reaction mix without L-gln or ATP was then added to each well. […] A590 values were then recorded and data analysed as previously described.

[5] = BpsA indigoidine synthesis kinetics with respect to ATP (values used in PPTase unit conversion); type: biochemical
Description: The raw data input into SigmaPlot for derivation of kinetic parameters for the PPTases PcpS and PP1183 was maximum change in indigoidine (ind) synthesis reaction rate (change in gradient per second) vs. concentration of CoA present in the reaction. The Vmax values given by SigmaPlot therefore had the units “Change in gradient per second” The assumptions made and calculations used to convert this standard enzyme kinetics units are given below. […] As such the assumption can be made that reaction rate for this enzyme is directly proportional to the concentration of active enzyme according to the equation:
For the reactions used in derivation of kinetic parameters of PPTases, [BpsA]=[E]=1.64 uM. [S]=[ATP]=1 mM.

B1: Sfp: PPTase of B. subtilis subsp. spizizenii ATCC6633 (protein, UniProt P39135 1-224, looked up)
4'-phosphopantetheinyl …: MKIYGIYMDRPLSQEENERFMSFISPEKREKCRRFYHKEDAHRTLLGDVLVRSVISRQYQLDKSDIRFSTQEYGKPCIPDLPDAHFNISHSGRWVICAFDSQPIGIDIEKTKPISLEIAKRFFSKTEYSDLLAKDKDEQTDYFYHLWSMKESFIKQEGKGLSLPLDSFSVRLHQDGQVSIELPDSHSPCYIKTYEVDPGYKMAVCAAHPDFPEDITMVSYEELL
[1]
  Km: 0.62 µM
  kcat: 0.00213 ± 6.7e-05 s⁻¹
BpsA [2]
  Indigoidine production on co-expression with BpsA: substantial production of indigoidine
BpsA [3]
  Km: 3.3 µM
  kcat: 0.0357 ± 0.00067 s⁻¹

B2: BpsA: single module NRPS protein of S. lavendulae ATCC11924 that converts L-glutamine into indigoidine; SEQ ID NO: 3 (protein, listed as Streptomyces lavendulae)
chain: MTLQETSVLEPTLQGTTTLPGLLAQRVAEHPEAIAVAYRDDKLTFRELASRSAALADYLEHLGVSADDCVGLFVEPSIDLMVGAWGILNAGAAYLPLSPEYPEDRLRYMIENSETKIILAQQRLVSRLRELAPKDVTIVTLRESEAFVRPEGTEAPAARSARPDTLAYVIYTSGSTGKPKGVMIEHRSIVNQLGWLRETYAIDRSKVILQKTPMSFDAAQWEILSPANGATVVMGAPGVYADPEGLIETIVKHNVTTLQCVPTLLQGLIDTEKFPECVSLQQIFSGGEALSRLLAIQTTQEMPGRALINVYGPTETTINSSSFPVDPADLDEGPQSISIGSPVHGTTYHILDKETLKPVGVGEIGELYIGGIQLARGYLHRDDLTAERFLEIELEEGAEPVRLYKTGDLGQWNNDGTVQFAGRADNQVKLRGYRVELDEISLAIENHDWVRNAAVIVKNDGRTGFQNLIACIELSEKEAALMDQGNHGSHHASKKSKLQVKAQLSNPGLRDDAELAARPAFDLEGAEPTPEQRARVFARKTYRFYEGGAVTQADLLGLLGATVTAGYSRKAADLAPAELGQILRWFGQYISEERLLPKYGYASPGALYATQMYFELEGVGGLKPGYYYYQPVRHQLVLISEREATGKATAQIHFIGKKSGIEPVYKNNILEVLEIETGHMVGLFEQILPAYGLDIHDRAYEPAVKDLLDVADEDYYLGTFELVPHAGARDDQAEVYVQTHGGKVAGLPEGQYRYENGELTRFSDDIVLKKHVIAINQSVYQAASFGISVYSRAEEEWLKYITLGKKLQHLMMNGLNLGFMSSGYSSKTGNPLPASRRMDAVLGANGVDSAPMYFFVGGRISDEQIGHEGMREDSVHMRGPAELIRDDLVSFLPDYMIPNRVVVFDRLPLSANGKIDVKALAASDQVNAELVERPFVAPRTETEKEIAAVWEKALRRENASVQDDFFESGGNSLIAVGLVRELNARLGVSLPLQSVLESPTIEKLARRLEREVAQESSRFVRLHAETGKARPVICWPGLGGYPMNLRSLAGEIGLGRSFYGVQSYGINEGETPYETITEMAKKDIEALKEIQPAGPYTLWGYSFGARVAFETAYQLEQAGEKVDNLFLIAPGSPKVRAENGKVWGREASFANRGYTTILFSVFTGTISGPDLDRCLETVTDEASFAEFISELKGIDVDLARRIISVVGQTYEFEYSFHELAERTLQAPISIFKAVGDDYSFLENSSGYSAEPPTVIDLDADHYSLLREDIGELVKHIRYLLGE
[4]; NaPh pH 7.8, ATP 2.5 mM
  Km: 2430 µM
  Vmax: 1.8 +/− 0.03 (ΔA590 · S^−1 · μM^−1) × 10^−2
[4]; Tris-Cl pH 8.0, ATP 2.5 mM
  Km: 3330 µM
  Vmax: 6.5 +/− 0.1 (ΔA590 · S^−1 · μM^−1) × 10^−2
[5]; ATP as substrate
  Km: 11100 µM
[5]; value used for unit conversion of PPTase kinetics
  Kcat (BpsA): 4.0223 s⁻¹
